Laboratory results as given in publication PMC2795164, “VEZF1 Elements Mediate Protection from DNA Methylation”.

T1: VEZF1 (BGP1) (Gallus gallus (chicken), UniProt I6LDD9 1-555)
T1 sequence: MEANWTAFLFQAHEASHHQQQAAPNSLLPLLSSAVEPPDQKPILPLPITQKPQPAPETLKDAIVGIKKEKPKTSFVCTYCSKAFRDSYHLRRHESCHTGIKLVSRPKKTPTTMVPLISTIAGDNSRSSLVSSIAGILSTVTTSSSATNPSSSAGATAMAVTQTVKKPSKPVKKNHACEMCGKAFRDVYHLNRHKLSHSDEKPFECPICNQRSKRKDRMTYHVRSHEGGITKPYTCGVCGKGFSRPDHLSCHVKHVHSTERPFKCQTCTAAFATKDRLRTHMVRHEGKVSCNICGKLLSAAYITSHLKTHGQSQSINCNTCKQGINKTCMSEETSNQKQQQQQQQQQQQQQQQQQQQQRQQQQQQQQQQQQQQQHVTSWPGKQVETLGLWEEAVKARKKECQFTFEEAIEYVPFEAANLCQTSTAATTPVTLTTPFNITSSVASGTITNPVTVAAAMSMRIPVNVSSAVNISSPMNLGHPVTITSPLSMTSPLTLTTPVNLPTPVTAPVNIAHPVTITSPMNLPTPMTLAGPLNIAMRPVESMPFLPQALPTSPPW

T2: ZF5, recombinant (Gallus gallus (chicken), UniProt Q92010 1-448, R436A)
T2 sequence: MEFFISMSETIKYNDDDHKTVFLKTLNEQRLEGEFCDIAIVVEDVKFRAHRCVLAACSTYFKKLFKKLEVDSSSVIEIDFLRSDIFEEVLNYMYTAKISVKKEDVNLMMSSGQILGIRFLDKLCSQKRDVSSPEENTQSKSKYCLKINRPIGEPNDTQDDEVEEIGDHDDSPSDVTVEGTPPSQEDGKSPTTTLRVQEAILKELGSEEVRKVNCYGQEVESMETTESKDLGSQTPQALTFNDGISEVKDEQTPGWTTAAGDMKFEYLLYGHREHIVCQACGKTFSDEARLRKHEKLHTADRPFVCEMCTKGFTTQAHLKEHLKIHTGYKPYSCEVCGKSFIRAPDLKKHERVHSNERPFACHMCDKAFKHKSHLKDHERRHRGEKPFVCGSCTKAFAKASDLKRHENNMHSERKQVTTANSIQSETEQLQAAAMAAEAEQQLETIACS

B1: HS4 FIII wt (dsDNA)
DNA 1: AGGCGCGCCCCGGTCCGGCGCTCCCCCCGCATCCCCGAGCCGGGGCGCGCCT
DNA 2: AGGCGCGCCCCGGCTCGGGGATGCGGGGGGAGCGCCGGACCGGGGCGCGCCT
B2: HS4 FV wt (dsDNA)
DNA 1: CCTGCAGACACCTGGGGGGATACGGGGAAAAAGCTTTAGG
DNA 2: CCTAAAGCTTTTTCCCCGTATCCCCCCAGGTGTCTGCAGG
B3: HS4 FI wt (dsDNA)
DNA 1: GGAGCTCACGGGGACAGCCCCCCCCCAAAGCCCCCAGGGA
DNA 2: TCCCTGGGGGCTTTGGGGGGGGGCTGTCCCCGTGAGCTCC
B4: glo wt (betaA-globin promoter, G16) (dsDNA)
DNA 1: AATTGCAGAGCTGGGAATCGGGGGGGGGGGGGGGGCGGGTGGTGGTGTGG
DNA 2: CCACACCACCACCCGCCCCCCCCCCCCCCCCGATTCCCAGCTCTGCAATT

How the values were obtained:
VEZF1 (BGP1) [1] = molecular target: T1, VEZF1 (BGP1); assay: EMSA; EMSA buffer, salt, pH and temperature not given in the material; competitors at 50-fold molar excess; conditions: protein: ivt; label: 32P (probe); blunt
ZF5, recombinant [2] = molecular target: T2, ZF5, recombinant; assay: EMSA; no specificity for the dG-dC string; EMSA buffer, salt, pH and temperature not given in the material; competitors at 50-fold molar excess; conditions: protein: recombinant; label: 32P (probe); blunt
SP3, recombinant = SP3, recombinant (Gallus gallus (chicken), UniProt Q90WR8 1-771); assay: EMSA; EMSA buffer, salt, pH and temperature not given in the material; competitors at 50-fold molar excess; conditions: protein: recombinant; label: 32P (probe); blunt
SP1, recombinant = SP1, recombinant (Gallus gallus (chicken), UniProt A0A8V1A4P9 1-760); assay: as above; conditions: protein: recombinant; label: 32P (probe); blunt
ZF5, recombinant [3] = molecular target: T2, ZF5, recombinant; assay: as above; conditions: protein: recombinant; label: 32P (probe); blunt
VEZF1 (BGP1) [4] = molecular target: T1, VEZF1 (BGP1); assay: as above; conditions: protein: ivt; label: 32P (probe); blunt; remark: listed apart in the source

Sequence of SP1, recombinant (A0A8V1A4P9 entry or part of it): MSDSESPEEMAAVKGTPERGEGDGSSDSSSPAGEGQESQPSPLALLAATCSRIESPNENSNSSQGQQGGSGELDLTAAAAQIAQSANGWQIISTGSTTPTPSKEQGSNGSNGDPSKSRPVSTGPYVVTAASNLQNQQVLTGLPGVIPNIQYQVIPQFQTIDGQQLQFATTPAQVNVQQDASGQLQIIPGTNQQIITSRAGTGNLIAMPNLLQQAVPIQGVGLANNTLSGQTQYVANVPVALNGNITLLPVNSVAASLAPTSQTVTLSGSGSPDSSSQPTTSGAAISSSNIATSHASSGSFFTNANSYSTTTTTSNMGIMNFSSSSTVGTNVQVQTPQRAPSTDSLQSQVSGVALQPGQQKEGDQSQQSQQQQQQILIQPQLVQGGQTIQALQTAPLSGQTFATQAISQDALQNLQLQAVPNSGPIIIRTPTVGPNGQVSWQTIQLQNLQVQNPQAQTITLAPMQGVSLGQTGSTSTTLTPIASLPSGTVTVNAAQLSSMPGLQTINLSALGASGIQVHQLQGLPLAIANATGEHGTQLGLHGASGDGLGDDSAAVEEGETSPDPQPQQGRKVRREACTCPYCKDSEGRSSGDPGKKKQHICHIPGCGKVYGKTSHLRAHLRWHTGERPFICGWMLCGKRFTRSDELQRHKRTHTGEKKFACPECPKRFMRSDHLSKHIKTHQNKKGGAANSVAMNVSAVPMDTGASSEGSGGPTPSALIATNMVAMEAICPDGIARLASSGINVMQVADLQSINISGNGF
Sequence of SP3, recombinant (Q90WR8 whole entry): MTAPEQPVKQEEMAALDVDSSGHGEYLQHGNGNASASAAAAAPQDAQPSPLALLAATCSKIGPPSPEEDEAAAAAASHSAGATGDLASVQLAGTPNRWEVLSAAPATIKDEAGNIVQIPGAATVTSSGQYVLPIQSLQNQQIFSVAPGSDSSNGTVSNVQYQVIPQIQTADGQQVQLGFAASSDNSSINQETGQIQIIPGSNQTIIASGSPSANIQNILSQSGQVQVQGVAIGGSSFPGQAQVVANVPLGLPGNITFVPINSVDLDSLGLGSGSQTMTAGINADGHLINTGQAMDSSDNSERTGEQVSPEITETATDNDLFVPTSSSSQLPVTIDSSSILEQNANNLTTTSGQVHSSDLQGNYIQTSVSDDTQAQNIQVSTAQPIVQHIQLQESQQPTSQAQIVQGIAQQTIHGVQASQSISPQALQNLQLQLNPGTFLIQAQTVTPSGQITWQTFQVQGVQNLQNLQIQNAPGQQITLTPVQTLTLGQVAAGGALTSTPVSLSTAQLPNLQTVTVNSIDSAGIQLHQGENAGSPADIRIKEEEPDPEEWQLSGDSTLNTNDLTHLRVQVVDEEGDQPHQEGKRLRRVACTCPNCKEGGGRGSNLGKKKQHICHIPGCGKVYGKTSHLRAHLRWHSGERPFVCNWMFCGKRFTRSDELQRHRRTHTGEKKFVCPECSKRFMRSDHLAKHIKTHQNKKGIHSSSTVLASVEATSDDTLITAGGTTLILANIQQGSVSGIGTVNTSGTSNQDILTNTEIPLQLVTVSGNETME

Binder	binding signal (VEZF1 (BGP1) [1])	binding result (ZF5, recombinant [2])	binding result (SP3, recombinant)	binding result (SP1, recombinant)	binding result (ZF5, recombinant [3])	binding result (VEZF1 (BGP1) [4])
B1	~2 fold lower affinity than FI and betaA sites	binds	no binding	no binding		
B2	~5 fold lower affinity than FI and betaA sites		no binding	no binding		
B3			binds	binds	no binding	binds
B4			binds	binds		binds
